Experimental data taken from US20260125469A1 (Hoffmann-La Roche, published 2026).

B1: GPRC5D-TCB, GPRC5D CD3 variant P033.078 (bispecific antibody, human IgG1, kappa, L234A L235A)
heavy 1: not shown
heavy 2: EVQLVESGGGVVQPGRSLRLSCAASGFSFSNYGMAWVRQAPGKGLEWVASISTGGGNTYYRDSVKGRFTISRDNAKNTLYLQMNSLRAEDTAVYYCTRHDRGGLYWGQGTMVTVSSASTKGPSVFPLAPSSKSTSGGTAALGCLVEDYFPEPVTVSWNSGALTSGVHTFPAVLQSSGLYSLSSVVTVPSSSLGTQTYICNVNHKPSNTKVDEKVEPKSCDKTHTCPPCPAPEAAGGPSVFLFPPKPKDTLMISRTPEVTCVVVDVSHEDPEVKFNWYVDGVEVHNAKTKPREEQYNSTYRVVSVLTVLHQDWLNGKEYKCKVSNKALGAPIEKTISKAKGQPREPQVCTLPPSRDELTKNQVSLSCAVKGFYPSDIAVEWESNGQPENNYKTTPPVLDSDGSFFLVSKLTVDKSRWQQGNVFSCSVMHEALHNHYTQKSLSLSP
light 1: DIVMTQSPLSLPVTPGEPASISCRSSKSLLHSNGITYVYWYLQKPGQSPQLLIYRMSNRASGVPDRFSGSGSGTDFTLKISRVEAEDVGVYHCGQLLENPYTFGQGTKLEIKRTVAAPSVFIFPPSDRKLKSGTASVVCLLNNFYPREAKVQWKVDNALQSGNSQESVTEQDSKDSTYSLSSTLTLSKADYEKHKVYACEVTHQGLSSPVTKSFNRGEC
light 2: EVQLLESGGGLVQPGGSLRLSCAASGFTFESYAMNWVRQAPGKGLEWVSRIRSKYNEYATYYADSVKGRFTISRDDSKNTLYLQMNSLRAEDTAVYYCVRASNFPSSFVSYFGYWGQGTLVTVSSASVAAPSVFIFPPSDEQLKSGTASVVCLLNNFYPREAKVQWKVDNALQSGNSQESVTEQDSKDSTYSLSSTLTLSKADYEKHKVYACEVTHQGLSSPVTKSFNRGEC
notes: 2+1 IgG CrossFab, inverted; human IgG1 Fc, knob-into-hole, PGLALA; also called P033.078 in GPRC5D-TCB format
B2: GPRC5D-TCB, GPRC5D CD3 variant P004.042 (bispecific antibody, human IgG1, kappa, L234A L235A)
heavy 1: not shown
heavy 2: EVQLVESGGGVVQPGRSLRLSCAASGFSFSNYGMAWVRQAPGKGLEWVASISTGGGNTYYRDSVKGRFTISRDNAKNTLYLQMNSLRAEDTAVYYCTRHDRGGLYWGQGTMVTVSSASTKGPSVFPLAPSSKSTSGGTAALGCLVEDYFPEPVTVSWNSGALTSGVHTFPAVLQSSGLYSLSSVVTVPSSSLGTQTYICNVNHKPSNTKVDEKVEPKSCDKTHTCPPCPAPEAAGGPSVFLFPPKPKDTLMISRTPEVTCVVVDVSHEDPEVKFNWYVDGVEVHNAKTKPREEQYNSTYRVVSVLTVLHQDWLNGKEYKCKVSNKALGAPIEKTISKAKGQPREPQVCTLPPSRDELTKNQVSLSCAVKGFYPSDIAVEWESNGQPENNYKTTPPVLDSDGSFFLVSKLTVDKSRWQQGNVFSCSVMHEALHNHYTQKSLSLSP
light 1: DIVMTQSPLSLPVTPGEPASISCRSSKSLLHSNGITYVYWYLQKPGQSPQLLIYRMSNRASGVPDRFSGSGSGTDFTLKISRVEAEDVGVYHCGQLLENPYTFGQGTKLEIKRTVAAPSVFIFPPSDRKLKSGTASVVCLLNNFYPREAKVQWKVDNALQSGNSQESVTEQDSKDSTYSLSSTLTLSKADYEKHKVYACEVTHQGLSSPVTKSFNRGEC
light 2: EVQLLESGGGLVQPGGSLRLSCAASGFQFDNYAMNWVRQAPGKGLEWVSRIRTKYNEYATYYADSVKGRFTISRDDSKNTLYLQMNSLRAEDTAVYYCVRASNFPQSYVSYFGYWGQGTLVTVSSASVAAPSVFIFPPSDEQLKSGTASVVCLLNNFYPREAKVQWKVDNALQSGNSQESVTEQDSKDSTYSLSSTLTLSKADYEKHKVYACEVTHQGLSSPVTKSFNRGEC
notes: 2+1 IgG CrossFab, inverted; human IgG1 Fc, knob-into-hole, PGLALA; also called P004.042 in GPRC5D-TCB format
B3: GPRC5D-TCB, GPRC5D CD3 variant P035.093 (bispecific antibody, human IgG1, kappa, L234A L235A)
heavy 1: not shown
heavy 2: EVQLVESGGGVVQPGRSLRLSCAASGFSFSNYGMAWVRQAPGKGLEWVASISTGGGNTYYRDSVKGRFTISRDNAKNTLYLQMNSLRAEDTAVYYCTRHDRGGLYWGQGTMVTVSSASTKGPSVFPLAPSSKSTSGGTAALGCLVEDYFPEPVTVSWNSGALTSGVHTFPAVLQSSGLYSLSSVVTVPSSSLGTQTYICNVNHKPSNTKVDEKVEPKSCDKTHTCPPCPAPEAAGGPSVFLFPPKPKDTLMISRTPEVTCVVVDVSHEDPEVKFNWYVDGVEVHNAKTKPREEQYNSTYRVVSVLTVLHQDWLNGKEYKCKVSNKALGAPIEKTISKAKGQPREPQVCTLPPSRDELTKNQVSLSCAVKGFYPSDIAVEWESNGQPENNYKTTPPVLDSDGSFFLVSKLTVDKSRWQQGNVFSCSVMHEALHNHYTQKSLSLSP
light 1: DIVMTQSPLSLPVTPGEPASISCRSSKSLLHSNGITYVYWYLQKPGQSPQLLIYRMSNRASGVPDRFSGSGSGTDFTLKISRVEAEDVGVYHCGQLLENPYTFGQGTKLEIKRTVAAPSVFIFPPSDRKLKSGTASVVCLLNNFYPREAKVQWKVDNALQSGNSQESVTEQDSKDSTYSLSSTLTLSKADYEKHKVYACEVTHQGLSSPVTKSFNRGEC
light 2: EVQLLESGGGLVQPGGSLRLSCAASGFTFSSYAMNWVRQAPGKGLEWVSRIRSKYNNYATYYADSVKGRFTISRDDSKNTLYLQMNSLRAEDTAVYYCVRASNFPASYVSYFAYWGQGTLVTVSSASVAAPSVFIFPPSDEQLKSGTASVVCLLNNFYPREAKVQWKVDNALQSGNSQESVTEQDSKDSTYSLSSTLTLSKADYEKHKVYACEVTHQGLSSPVTKSFNRGEC
notes: 2+1 IgG CrossFab, inverted; human IgG1 Fc, knob-into-hole, PGLALA; also called P035.093 in GPRC5D-TCB format

Key:
[1] = target: human CD3 on cells (CD3ε) (human, UniProt P07766 23-207); assay: cell-based or functional assay
Chain of human CD3 on cells (CD3ε) (P07766 23-207 limits assumed): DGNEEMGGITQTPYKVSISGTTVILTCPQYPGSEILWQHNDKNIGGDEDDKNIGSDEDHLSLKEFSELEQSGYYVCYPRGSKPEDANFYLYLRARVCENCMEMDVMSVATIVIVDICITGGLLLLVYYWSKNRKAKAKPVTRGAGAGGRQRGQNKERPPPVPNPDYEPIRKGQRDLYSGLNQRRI

[2] = target: T1, Human CD3ε stalk-Fc(knob)-Avi/CD3δ stalk-Fc(hole) (human); assay: SPR, TCB captured by anti-PG antibody, antigen as analyte, 25°C
T1 construct: Heterodimer of CD3 delta and CD3 epsilon ectodomains fused to human Fc with knob-into-hole; also called human CD3ε/δ; CD3 antigen
Description: (§1) For affinity measurements, TCB molecules were captured on a C1 sensorchip (GE Healthcare) surface with immobilized anti-Fc(P329G) IgG (an antibody that specifically binds human IgG₁ Fc(P329G); “anti-PG antibody”—see WO 2017/072210, incorporated herein by reference). The experimental setup is schematically depicted in FIG. 3. Capture IgG was coupled to the sensorchip surface by direct immobilization of around 400 resonance units (RU) using the standard amine coupling kit (GE Healthcare Life Sciences).
(§2) Kinetic constants were derived using the Biacore T200 Evaluation Software (GE Healthcare Life Sciences), to fit rate equations for 1:1 Langmuir binding by numerical integration. The half-life (t_{1/2}) of the interaction was calculated using the formula t_{1/2}=ln2/koff.
(§3) To analyze the interaction to CD3, TCB molecules were captured for 240 s at 25 nM with a flow rate of 10 μl/min. Human and cynomolgus CD3F stalk-Fc(knob)-Avi/CD36-stalk-Fc(hole) were passed at a concentration of 0.14-100 nM with a flow rate of […] through the flow cells for 240 s. The dissociation was monitored for 800 s.

[3] = target: T2, Cynomolgus CD3ε stalk-Fc(knob)-Avi/CD3δ stalk-Fc(hole) (cynomolgus); assay: as above
T2 construct: also called cynomolgus CD3ε/δ
Description: as §1, §2, §3

[4] = target: T1, Human CD3ε stalk-Fc(knob)-Avi/CD3δ …; assay: SPR on immobilized human CD3ε/δ after stress, relative to sample kept at -80°C pH 6
Experimental: In order to assess the effect of the deamidation site removal and its effect on the stability of the antibodies, the optimized anti-CD3 antibodies (in TCB format) were incubated for 14 days at 37° C., pH 7.4 and at 40° C., pH 6 and further analyzed by SPR for their binding capability to human CD3ε/δ. Samples stored at −80° C. pH 6 were used as reference. The reference samples and the samples stressed at 40° C. were in 20 mM His, 140 mM NaCl, pH 6.0, and the samples stressed at 37° C. in PBS, pH 7.4, all at a concentration of 1.0 mg/ml. After the stress period (14 days) samples in PBS were dialyzed back to 20 mM His, 140 mM NaCl, pH 6.0 for further analysis.
All SPR experiments were performed on a Biacore T200 instrument (GE Healthcare) at 25° C. with HBS-P+ (10 mM HEPES, 150 mM NaCl pH 7.4, 0.05% Surfactant P20) as running and dilution buffer. Biotinylated human CD3ε/δ (see Example 3, SEQ ID NOs 41 and 42) as well as biotinylated anti-huIgG (Capture Select, Thermo Scientific, #7103262100) were immobilized on a Series S Sensor Chip SA (GE Healthcare, #29104992), resulting in surface densities of at least 1000 resonance units (RU). Anti-CD3 antibodies with a concentration of 2 μg/ml were injected for 30 s at a flow rate of 5 μl/min, and dissociation was monitored for 120 s. The surface was regenerated by injecting 10 mM glycine pH 1.5 for 60 s. Bulk refractive index differences were corrected by subtracting blank injections and by subtracting the response obtained from a blank control flow cell. For evaluation, the binding response 5 seconds after injection end was taken. To normalize the binding signal, the CD3 binding was divided by the anti-huIgG response (the signal (RU) obtained upon capture of the CD3 antibody on the immobilized anti-huIgG antibody). The relative binding activity was calculated by referencing each temperature stressed sample to the corresponding, non-stressed sample.
The experiment was performed as described in Example 4, using the TCB molecules prepared in Example 7.

[5] = target: T3, human GPRC5D on stably transduced CHO-K1 cells (human, UniProt Q9NZD1 1-345); assay: flow cytometry on CHO-K1 cells stably transduced with human GPRC5D, performed as in Example 11
T3 construct: whole, on cells; also called CHO-hGPRC5D cells
T3 sequence (Q9NZD1 whole entry): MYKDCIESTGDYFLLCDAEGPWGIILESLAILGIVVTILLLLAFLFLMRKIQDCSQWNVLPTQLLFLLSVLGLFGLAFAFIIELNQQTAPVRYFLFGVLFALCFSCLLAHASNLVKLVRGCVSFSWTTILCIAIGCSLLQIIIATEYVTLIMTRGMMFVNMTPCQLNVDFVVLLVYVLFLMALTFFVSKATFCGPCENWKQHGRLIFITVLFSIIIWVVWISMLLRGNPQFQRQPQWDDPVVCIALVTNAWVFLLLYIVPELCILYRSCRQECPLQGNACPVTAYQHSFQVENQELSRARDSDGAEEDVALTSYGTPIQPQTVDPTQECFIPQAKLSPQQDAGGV
Experimental: The binding of the CEACAM5-TCB molecules prepared in Example 7 was tested on CEACAM5 (CEA)-positive tumor cells (LS-180 cells, ECACC #87021202) and CD3-expressing immortalized T lymphocyte cells (GloResponse Jurkat NFAT-RE-luc2P; Promega, #CS176501). Briefly, adherent LS-180 cells were detached, using Cell Dissociation Buffer (Gibco), counted, checked for viability and re-suspended at 2 million cells per ml in FACS buffer (PBS with 0.1% BSA). Likewise, Jurkat suspension cells were harvested and plated for subsequent stainings. 100 μl of the cell suspension (containing 0.2 million cells) were incubated in round-bottom 96-well plates for 30 min at 4° C. with increasing concentrations of the CEACAM5-TCB molecules (4 pM-300 nM). Cells were washed twice with cold PBS 0.1% BSA (FACS buffer), re-incubated for further 30 min at 4° C. with the Alexa Fluor 647-conjugated AffiniPure F(ab′)2 Fragment Goat Anti-Human IgG, Fcγ Fragment Specific Antibody (Jackson Immuno Research Lab #109-606-008, diluted 1:50 in FACS buffer) and washed twice with cold PBS 0.1% BSA thereafter. The staining was fixed for 20 min at 4° C. in the dark, using 150 μl of 2% PFA in FACS buffer per well. Fluorescence was analyzed by FACS using a FACS Fortessa (Software FACS Diva). Binding curves were obtained using GraphPadPrism6.
The binding of the GPRC5D-TCB molecules prepared in Example 7 was tested using CHO-transfectants stably transduced to express human GPRC5D (CHO-K1, ATCC) and CD3-expressing immortalized T lymphocyte cells (GloResponse Jurkat NFAT-RE-luc2P; Promega, #CS176501). The experiment was performed as described in Example 11.

Binder	EC50 20 h (pM), T-cell mediated lysis of GPRC5D-expressing NCI-H929 cells [1] [pM]	Kd [2] [nM]	koff [2] [s⁻¹]	kon [2] [M⁻¹ s⁻¹]	t1/2 [2] [min]	Kd [3] [nM]	koff [3] [s⁻¹]	kon [3] [M⁻¹ s⁻¹]	t1/2 [3] [min]	binding activity [%] after 2 weeks at pH 6.0/40°C [4] [%]	binding activity [%] after 2 weeks at pH 7.4/37°C [4] [%]	binding result [5]
B1	0.41	0.547	0.000948	1.74e+06	12.2	0.333	0.000688	2.07e+06	16.8	99	98	binds
B2	0.87	1.21	0.00265	2.2e+06	4.36	0.599	0.00163	2.72e+06	7.09	100	99	binds
B3	0.31	0.377	0.0013	3.46e+06	8.89	0.241	0.000866	3.61e+06	13.3	100	97	binds
